Measurements from IntAct's records for PubMed 18458160.

B1: KN motif and ankyrin repeat domain-containing protein 1 (Homo sapiens), Q14678-2 (parent)
chain: METRRRLEQERATMQMTPGEFRRPRLASFGGMGTTSSLPSFVGSGNHNPAKHQLQNGYQGNGDYGSYAPAAPTTSSMGSSIRHSPLSSGISTPVTNVSPMHLQHIREQMAIALKRLKELEEQVRTIPVLQVKISVLQEEKRQLVSQLKNQRAASQINVCGVRKRSYSAGNASQLEQLSRARRSGGELYIDYEEEEMETVEQSTQRIKEFRQLTADMQALEQKIQDSSCEASSELRENGECRSVAVGAEENMNDIVVYHRGSRSCKDAAVGTLVEMRNCGVSVTEAMLGVMTEADKEIELQQQTIESLKEKIYRLEVQLRETTHDREMTKLKQELQAAGSRKKVDKATMAQPLVFSKVVEAVVQTRDQMVGSHMDLVDTCVGTSVETNSVGISCQPECKNKVVGPELPMNWWIVKERVEMHDRCAGRSVEMCDKSVSVEVSVCETGSNTEESVNDLTLLKTNLNLKEVRSIGCGDCSVDVTVCSPKECASRGVNTEAVSQVEAAVMAVPRTADQDTSTDLEQVHQFTNTETATLIESCTNTCLSTLDKQTSTQTVETRTVAVGEGRVKDINSSTKTRSIGVGTLLSGHSGFDRPSAVKTKESGVGQININDNYLVGLKMRTIACGPPQLTVGLTASRRSVGVGDDPVGESLENPQPQAPLGMMTGLDHYIERIQKLLAEQQTLLAENYSELAEAFGEPHSQMGSLNSQLISTLSSINSVMKSASTEELRNPDFQKTSLGKITGNYLGYTCKCGGLQSGSPLSSQTSQPEQEVGTSEGKPISSLDAFPTQEGTLSPVNLTDDQIAAGLYACTNNESTLKSIMKKKDGNKDSNGAKKNLQFVGINGGYETTSSDDSSSDESSSSESDDECDVIEYPLEEEEEEEDEDTRGMAEGHHAVNIEGLKSARVEDEMQVQECEPEKVEIRERYELSEKMLSACNLLKNTINDPKALTSKDMRFCLNTLQHEWFRVSSQKSAIPAMVGDYIAAFEAISPDVLRYVINLADGNGNTALHYSVSHSNFEIVKLLLDADVCNVDHQNKAGYTPIMLAALAAVEAEKDMRIVEELFGCGDVNAKASQAGQTALMLAVSHGRIDMVKGLLACGADVNIQDDEGSTALMCASEHGHVEIVKLLLAQPGCNGHLEDNDGSTALSIALEAGHKDIAVLLYAHVNFAKAQSPGTPRLGRKTSPGPTHRGSFD
partner: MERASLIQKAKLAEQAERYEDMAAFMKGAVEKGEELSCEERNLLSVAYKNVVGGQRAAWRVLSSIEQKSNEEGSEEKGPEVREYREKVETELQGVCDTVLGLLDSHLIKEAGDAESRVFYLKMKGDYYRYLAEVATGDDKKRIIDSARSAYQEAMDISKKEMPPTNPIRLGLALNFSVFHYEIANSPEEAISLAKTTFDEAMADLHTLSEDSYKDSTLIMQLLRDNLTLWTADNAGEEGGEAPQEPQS
B2: KN motif and ankyrin repeat domain-containing protein 1 (Homo sapiens), Q14678-2 (parent)
chain: B1 chain
B3: KN motif and ankyrin repeat domain-containing protein 1 (Homo sapiens), Q14678-2 (parent)
chain: B1 chain
partner: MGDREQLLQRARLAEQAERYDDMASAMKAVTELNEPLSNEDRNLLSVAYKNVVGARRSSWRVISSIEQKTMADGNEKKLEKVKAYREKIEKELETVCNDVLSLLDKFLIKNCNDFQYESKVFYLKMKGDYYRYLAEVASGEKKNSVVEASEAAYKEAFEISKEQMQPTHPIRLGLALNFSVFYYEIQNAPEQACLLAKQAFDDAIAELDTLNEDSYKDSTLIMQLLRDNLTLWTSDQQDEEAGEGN
B4: KN motif and ankyrin repeat domain-containing protein 1 (Homo sapiens), Q14678-2 (parent)
chain: B1 chain
partner: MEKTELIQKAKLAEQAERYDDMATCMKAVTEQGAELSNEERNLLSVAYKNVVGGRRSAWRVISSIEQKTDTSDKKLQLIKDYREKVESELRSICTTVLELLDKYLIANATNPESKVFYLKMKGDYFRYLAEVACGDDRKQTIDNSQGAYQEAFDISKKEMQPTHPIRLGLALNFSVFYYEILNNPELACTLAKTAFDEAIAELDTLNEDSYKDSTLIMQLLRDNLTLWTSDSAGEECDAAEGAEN
B5: KN motif and ankyrin repeat domain-containing protein 1 (Homo sapiens), Q14678-2 (parent)
chain: B1 chain
partner: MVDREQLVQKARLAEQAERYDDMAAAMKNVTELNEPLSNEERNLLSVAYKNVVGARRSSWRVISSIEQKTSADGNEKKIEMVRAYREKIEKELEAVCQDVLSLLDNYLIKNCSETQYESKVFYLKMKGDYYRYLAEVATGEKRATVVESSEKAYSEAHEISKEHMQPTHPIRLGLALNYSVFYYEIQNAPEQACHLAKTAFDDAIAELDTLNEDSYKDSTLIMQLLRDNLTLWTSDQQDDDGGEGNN

Variants of: B1
Conditions: with 1433s_human SFN

effect of a mutation on the interaction | Variant
disrupting interaction | S167A

Variants of: B2
Conditions: with 1433z_human YWHAZ

effect of a mutation on the interaction | Variant
disrupting interaction | S167A

Variants of: B2
Conditions: with 1433e_human YWHAE

effect of a mutation on the interaction | Variant
disrupting interaction | S167A

Variants of: B2
Conditions: with 1433b_human YWHAB

effect of a mutation on the interaction | Variant
disrupting interaction | S167A

Variants of: B3
Conditions: with 1433f_human YWHAH

effect of a mutation on the interaction | Variant
disrupting interaction | S167A

Variants of: B4
Conditions: with 1433t_human YWHAQ

effect of a mutation on the interaction | Variant
disrupting interaction | S167A

Variants of: B5
Conditions: with 1433g_human YWHAG

effect of a mutation on the interaction | Variant
disrupting interaction | S167A
